Here are results for 23 sequences from the supplement of paper PMC9170038.

This data set deals with MS2 coat protein. Put plainly: apparent KD of MS2 coat protein; designed switch direction (-1 OFF switch, 1 ON switch): -1; higher = weaker reporter binding. Put shortly: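 Designed RNA switches sharing common flanks were transcribed on Illumina chips by stalled E. coli RNA polymerase. They were titrated with SNAP-549-labelled MS2 coat protein, from 0.7 or 1.5 nM doubling to 3 µM, in Tris-HCl pH 7.5 buffer with KCl, MgCl2, BSA, DTT, tRNA and Tween-20. Titrations ran without input, with 200 uM small-molecule ligand, or with an oligonucleotide input. The apparent KD of each design is the median over its clusters, after curve-fitting of normalised cluster fluorescence.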

[1] abbreviates: Eterna round: R95, input ligand: FMN 200 uM.
The mark [2] stands for this setting: Eterna round: R95, input ligand: microRNA oligo, concentration not stated.
[3] abbreviates: Eterna round: R95, input ligand: none.
The mark [4] stands for this setting: input ligand: microRNA oligo, concentration not stated.

Regarding “GAAAAGGUAGGAUAUGCGAAAAAAAAGGGUAGAAAAAAAACACAUGAGGAUCACCCAUGUAGAAGGACCAAAAG [salish99_ex2_r3_031] (puzzle: Exclusion 2)”, the “apparent KD of MS2 coat protein” value under setting [1] worked out at 26.1 nM, the “apparent KD of MS2 coat protein” value under setting [2] turned out to be 31.2 nM and the “apparent KD of MS2 coat protein” value under setting [3] is 32 nM.
With “GAAAAGUGAGGAUAUGGUAAAAGAAAAAGAAGAAGAAAACUCCAGAAGGCACAUGAGGAUCACCCAUGUGAAAG [salish99_ex4_r3_007] (puzzle: Exclusion 4)”, the “apparent KD of MS2 coat protein” value was determined as 22.2 nM under setting [1], 17.4 nM under setting [2] and 15.7 nM under setting [3].
As to “GAAAGGGUAGGAUAUACGAAAAAAAAGGGUAGAAAAAAAACACAUGAGGAUCACCCAUGUAGAAGGACCAAAAG [salish99_ex2_r3_033] (puzzle: Exclusion 2)”, the “apparent KD of MS2 coat protein” value is 40.2 nM under setting [1], 30.9 nM under setting [2] and 27.2 nM under setting [3].
As for “GAACGCCGGCAGGAUAUGGACAGCCAAAAGGCGCCAGAAGGGCCAACAUGAGGAUCACCCAUGUGUCCUGAUGG [Riceanon] (puzzle: Exclusion 6)”, the “apparent KD of MS2 coat protein” value under setting [1] was determined as 10.9 nM, the “apparent KD of MS2 coat protein” value under setting [2] was found to be 8.46 nM and the “apparent KD of MS2 coat protein” value under setting [3] was found to be 10.3 nM.
Turning to “GAACUCGUGAAGGAUAUCCGUACCAAAGCGGCAGGAGAAGGUCACACAUGAGGAUCACCCAUGUGGUACCUCGU [Xeinbira] (Eterna round: R96, puzzle: Exclusion 6)”, under setting [4], the “apparent KD of MS2 coat protein” value is 23.6 nM.
As for “GAACUCGUGAAGGAUAUCCGUACCAAAGCGGCAGGAGAAGGUCACACAUGAGGAUCACCCAUGUGGUACCUCGU [Xeinbira] (puzzle: Exclusion 6)”, the “apparent KD of MS2 coat protein” value came out at 80.1 nM under setting [1], 27.4 nM under setting [2] and 25.1 nM under setting [3].
Take “GAACUGAAGCUUUGCUUUAGUCGUACAUGAGGAUCACCCAUGUAGGAUAUGGUAGGCAAAGCUUACUAGAAGGACAGAGUGAUC [Mat - Exclusion NG 3 - Mod of JL - D69] (Eterna round: R96, puzzle: Exclusion NG 3)”: the “apparent KD of MS2 coat protein” value was found to be 99.1 nM (input ligand: FMN 200 uM), 156 nM under setting [4] and 71.3 nM (input ligand: none).
On to “GAAGAAAACCAAGGAUAUCGGAAAGGAAGUGUACGAGAAGGUGGACAUGGACAUGAGGAUCACCCAUGUGGCCCGAUGCCGUGG [PowerStrip EXNG 1.5] (Eterna round: R96, puzzle: Exclusion NG 1)”, for which the “apparent KD of MS2 coat protein” value runs as follows: (input ligand: FMN 200 uM) 54.8 nM; under setting [4], 33.5 nM; (input ligand: none) 38.1 nM.
For “GAAGAACAUGAGGAUCACCCAUGUGAGGAUAUGAAAAAGAAAAGAAAAGAAAGAAGAAUCAGAAGGCACAAAGG [Mat - Mod of Hog D2] (puzzle: Exclusion 1)”, the “apparent KD of MS2 coat protein” value under setting [1] is 50.8 nM, the “apparent KD of MS2 coat protein” value under setting [2] was found to be 23.1 nM and the “apparent KD of MS2 coat protein” value under setting [3] was found to be 38.3 nM.
For “GAAGAUCUGCAGGAUAUGAGACUGAAACAGUUCUCAGAAGGGCGGACAUGAGGAUCACCCAUGUAAGACUGCAA [Eternabot (Original) Solution 4] (Eterna round: R97, puzzle: Exclusion 6)”, the “apparent KD of MS2 coat protein” value by setting is: (input ligand: FMN 200 uM) 41.6 nM; (input ligand: none) 78.8 nM.
On to “GAAGCACAUGAGGAUCACCCAUGUAAGGAUAUAUUUCUGGUCCGGCCGGACCAGUACCGUAGAAGGUAUGUAAA [Excls-IIIa] (puzzle: Exclusion 1)”, for which the “apparent KD of MS2 coat protein” value under setting [2] came to 11.8 nM.
For the sequence “GAAUAGAGAGGAUAUGCGAUGUAGGUAGUACGAUAUAUCUGACAUGAGGAUCACCCAUGUAGAAGGCUCAGAUC [EX2 #6] (Eterna round: R97, puzzle: Exclusion 2)”, the “apparent KD of MS2 coat protein” value runs as follows: (input ligand: FMN 200 uM) 33.9 nM; (input ligand: none) 36.4 nM.
For the sequence “GAAUAGGCAGGAUAUACAUGAGGAUCACCCAUGUGCCGGCGAAAGGUACGUUCGAAAGGUAGAAGGGCCUAAAC [ChP 13.04.2015 #7] (Eterna round: R96, puzzle: Exclusion 3)”, the “apparent KD of MS2 coat protein” value runs as follows: (input ligand: FMN 200 uM) 176 nM; under setting [4], 36.7 nM; (input ligand: none) 41.8 nM.
Regarding “GAAUAGGCAGGAUAUACAUGAGGAUCACCCAUGUGCCGGCGAAAGGUACGUUCGAAAGGUAGAAGGGCCUAAAC [ChP 13.04.2015 #7] (puzzle: Exclusion 3)”, the “apparent KD of MS2 coat protein” value was determined as 151 nM under setting [1], 43.8 nM under setting [2] and 48.9 nM under setting [3].
Take “GAAUGAGAGCAGGAUAUCUUAAAAAUGUAUCAAAGAGAAGGGCUCACAUGAGGAUCACCCAUGUGGUCCUAGAU [jl-ex6-4.67 jandersonlee mod] (Eterna round: R97, puzzle: Exclusion 6)”: the “apparent KD of MS2 coat protein” value is, setting by setting: (input ligand: FMN 200 uM) 152 nM; (input ligand: none) 22.5 nM.
As to “GAAUGAGAGCAGGAUAUCUUAUAAAUGUAUGAAAGAGAAGGGCUCACAUGAGGAUCACCCAUGUGGUCCUAGAC [jl-ex6-4.72 jandersonlee mod] (Eterna round: R97, puzzle: Exclusion 6)”, the “apparent KD of MS2 coat protein” value is, setting by setting: (input ligand: FMN 200 uM) 309 nM; (input ligand: none) 40.1 nM.
As to “GACAGGCAGGCAGGAUAUGCCCGUGUGGAUGGUGUAGAAGGGCUAGCGGGUCACUUGAGGAUCACCCAAGUGGAGGGUGGCCUA [Mutated MS2 EX1.28] (Eterna round: R96, puzzle: Exclusion NG 1)”, the “apparent KD of MS2 coat protein” value (input ligand: FMN 200 uM) was determined as 51.3 nM, the “apparent KD of MS2 coat protein” value under setting [4] was found to be 31.2 nM and the “apparent KD of MS2 coat protein” value (input ligand: none) amounted to 38.2 nM.
The corresponding values for “GACAUGAGGAUCACCCAUGUAAGGGAUGAACUUCUGGGUAGCUAGGAUAUGGCUAUAAAGAUGGACCAGAAGGAGCGGACCCUA [Orlaveceat] (Eterna round: R96, puzzle: Exclusion NG 3)” are 48.7 nM, 31.4 nM and 32.4 nM.
On to “GACCGGACGUGGUCUGGUAACAUGAGGAUCACCCAUGUAGGUCUAAGAACAAGCCUUUUGCACGCUCGUCUUAUAUU [JR_SV3TOV1_Sub061] (puzzle: Sensor v3, turn-off variant 1)”, for which the “apparent KD of MS2 coat protein” value was 64.4 nM under setting [1], 56.5 nM under setting [2] and 88.2 nM under setting [3].
In the case of “GACCUGUGAGGAUAUUAUUAAAGGCCAAGUUAGGCCUUAAUUGAGAAGGCACAUGAGGAUCACCCAUGUUUGAC [Eternabot (L2) Solution 55] (Eterna round: R97, puzzle: Exclusion 4)”, the “apparent KD of MS2 coat protein” value by setting is: (input ligand: FMN 200 uM) 90.3 nM; (input ligand: none) 22.3 nM.
With “GACGAGUGAGGAUAUGGUGAGUAGUGCCUGAGCGCUGCUCACCAGAAGGCACAUGAGGAUCACCCAUGUAUGUC [Mat - Exclusion 4 - Mod of JL - D11] (puzzle: Exclusion 4)”, the “apparent KD of MS2 coat protein” value under setting [2] was 13.2 nM.
Turning to “GACUAGGGAGGAUAUAUUUACAGUGUACCUCGGAUGAUCGCACUUGAGGAUCACCCAAGUAGAAGGCUCGAGGG [EX2 #28] (Eterna round: R97, puzzle: Exclusion 2)”, the “apparent KD of MS2 coat protein” value (input ligand: FMN 200 uM) came to 30.4 nM and the “apparent KD of MS2 coat protein” value (input ligand: none) stood at 33.2 nM.
Take “GACUCAAUCCGAGGAUAUUGCCAGCGCUGCUAUCACAUGAGGAUCACCCAUGUAUCCUCGGCUUUCGAGAAGGCGGAUUGAGCG [Eternabot solution 35] (Eterna round: R96, puzzle: Exclusion NG 2)”: the “apparent KD of MS2 coat protein” value runs as follows: (input ligand: FMN 200 uM) 132 nM; under setting [4], 46.8 nM; (input ligand: none) 49.9 nM.
